From US20210261668A1 (DRAGONFLY THERAPEUTICS, published 2021)
Residue numbers refer to the chain shown, from its start.

T1: human NKG2D-Fc fusion protein (human, UniProt P26718 73-216)
T1 construct: extracellular domain; also called recombinant human NKG2D-Fc; human recombinant NKG2D; not shown: human IgG1 Fc domain
T1 sequence (looked up): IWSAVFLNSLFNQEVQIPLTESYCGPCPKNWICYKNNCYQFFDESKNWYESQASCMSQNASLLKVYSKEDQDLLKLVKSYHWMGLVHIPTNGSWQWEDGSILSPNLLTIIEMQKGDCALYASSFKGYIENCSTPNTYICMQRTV

T2: cynomolgus NKG2D-Fc fusion protein (cynomolgus; human, UniProt P61252 73-216)
T2 construct: extracellular domain; also called cynomolgus recombinant NKG2D-Fc; cynomolgus recombinant NKG2D; not shown: human IgG1 Fc domain
T2 sequence (looked up): T1 sequence (looked up) with D43N, T133I

T3: mouse NKG2D-Fc fusion protein (mouse; human, UniProt O54709 90-232)
T3 construct: extracellular domain; also called mouse recombinant NKG2D-Fc; recombinant mouse NKG2D-Fc; not shown: human IgG1 Fc domain
T3 sequence (looked up): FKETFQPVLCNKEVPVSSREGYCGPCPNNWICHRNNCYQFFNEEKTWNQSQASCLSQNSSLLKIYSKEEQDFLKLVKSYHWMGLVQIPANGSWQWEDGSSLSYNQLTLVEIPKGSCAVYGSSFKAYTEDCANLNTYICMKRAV

B1: ADI-27744 (antibody, V domains shown)
VH: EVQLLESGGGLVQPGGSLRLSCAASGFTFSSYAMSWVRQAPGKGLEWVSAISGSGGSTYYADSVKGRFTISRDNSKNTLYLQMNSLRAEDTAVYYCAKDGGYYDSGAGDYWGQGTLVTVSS
VL: DIQMTQSPSSVSASVGDRVTITCRASQGIDSWLAWYQQKPGKAPKLLIYAASSLQSGVPSRFSGSGSGTDFTLTISSLQPEDFATYYCQQGVSYPRTFGGGTKVEIK
notes: also called A44
B2: ADI-27749 (antibody, V domains shown)
VH: EVQLVESGGGLVKPGGSLRLSCAASGFTFSSYSMNWVRQAPGKGLEWVSSISSSSSYIYYADSVKGRFTISRDNAKNSLYLQMNSLRAEDTAVYYCARGAPMGAAAGWFDPWGQGTLVTVSS
VL: B1 VL with D30S, Y94F
notes: also called A49
B3: ADI-29379 (antibody, V domains shown)
VH: QVQLVQSGAEVKKPGASVKVSCKASGYTFTSYYMHWVRQAPGQGLEWMGIINPSGGSTSYAQKFQGRVTMTRDTSTSTVYMELSSLRSEDTAVYYCARGAPNYGDTTHDYYYMDVWGKGTTVTVSS
VL: EIVMTQSPATLSVSPGERATLSCRASQSVSSNLAWYQQKPGQAPRLLIYGASTRATGIPARFSGSGSGTEFTLTISSLQSEDFAVYYCQQYDDWPFTFGGGTKVEIK
notes: also called E79
B4: ADI-29378 (antibody, V domains shown)
VH: QVQLVQSGAEVKKPGASVKVSCKASGYTFTSYYMHWVRQAPGQGLEWMGIINPSGGSTSYAQKFQGRVTMTRDTSTSTVYMELSSLRSEDTAVYYCAREGAGFAYGMDYYYMDVWGKGTTVTVSS
VL: B3 VL with M4L, V13L, N32Y, G50D, T53N, E70D, Q79E, S80P, Y91S, D93N
notes: also called E78
B5: ADI-29447 (antibody, V domains shown)
VH: QVQLQQWGAGLLKPSETLSLTCAVYGGSFSGYYWSWIRQPPGKGLEWIGEIDHSGSTNYNPSLKSRVTISVDTSKNQFSLKLSSVTAADTAVYYCARARGPWSFDPWGQGTLVTVSS
VL: DIQMTQSPSTLSASVGDRVTITCRASQSISSWLAWYQQKPGKAPKLLIYKASSLESGVPSRFSGSGSGTEFTLTISSLQPDDFATYYCQQYDTFITFGGGTKVEIK
notes: also called F47
B6: ADI-27724 (antibody, V domains shown)
VH: B5 VH
VL: not shown

Each binder was assayed against T1, human NKG2D-Fc fusion protein (assay: ELISA on coated NKG2D-Fc).

binding result	Binder
binds	B1
binds	B2
binds	B3
binds	B4
binds	B5
binds	B6

Each binder was assayed against T2, cynomolgus NKG2D-Fc fusion protein (assay: ELISA on coated NKG2D-Fc).

binding result	Binder
binds	B1
binds	B2
binds	B3
binds	B4
binds	B5
binds	B6

What follows are binders tested against T3, mouse NKG2D-Fc fusion protein (assay: ELISA on coated NKG2D-Fc).

binding result	Binder
binds	B1
binds	B2
binds	B3
binds	B4
binds	B5
binds	B6
